Laboratory results taken from publication PMC7327923.

Key:
[1] = molecular target: Dps protein from Thermoleptolyngbya sp. O-77 (TlDps1) (Thermoleptolyngbya sp. O-77); assay: SEC-RALS; TlDps1 as isolated, 206 µg/mL; Superdex 200 Increase, 303 K, 10 mM Tris/HCl pH 8.0, 0.5 mL/min
[2] = molecular target: Dps protein from Thermoleptolyngbya sp. O-77 (TlDps1) (Thermoleptolyngbya sp. O-77); assay: SDS/PAGE; 5-20% gel; sample buffer with 2% SDS and 14.4 mM 2-mercaptoethanol; incubated 10 min at 298, 323 or 348 K before loading
[3] = molecular target: Dps protein from Thermoleptolyngbya sp. O-77 (TlDps1) (Thermoleptolyngbya sp. O-77); assay: crystal structure; hanging drop, 293 K, TlDps1 4.0 mg/mL in 10 mM Tris/HCl pH 8.0 with 0.15 M cesium chloride and 18% PEG 3350; 2.9 Å; six subunits in the asymmetric unit
[4] = molecular target: Dps protein from Thermoleptolyngbya sp. O-77 (TlDps1) (Thermoleptolyngbya sp. O-77); assay: native gel or EMSA; native PAGE, 5-20% gel; TlDps1 in 10 mM Tris/HCl pH 8.0, also after DNase I treatment

stoichiometry N [1]: 12
stoichiometry N [2]: 12
stoichiometry N [3]: 12
stoichiometry N [4]: 12
Substance: Dps protein from Thermoleptolyngbya sp. O-77 (TlDps1) (natural protein)
